These results are taken from patent publication US9347884B2, “Microfluidic device with direct sample heating via electromagnetic radiation” (UCL BUSINESS PLC, priority 2009, dated 2016).

Read-outs that look alike come from different tables or passages of the source.

The nature of series [1]: Equilibrium denaturation of FKBP-12 proteins by GdnHCl, capillary method. The series is classed as physicochemical. The protocol: Samples were measured and averaged for 100 laser pulses. […] Error bars shown are standard deviations.
(§1) The experimental detail was as set out below:
(§2) Equilibrium denaturation of wild-type FKBP-12: 50 μl, of FKBP-12 stock (50 μM FKBP-12, 5 mM DTT, 50 mM Tris.HCl, pH 7.5) was added to each well of a UV transparent Costar (Corning, Lowell, Mass., USA) 96-well plate. […] Samples were sealed and equilibrated for 17 hours at 22° C. prior to measurement of intrinsic protein fluorescence in a Fluostar Optima plate reader as above. The same samples were then used to measure intrinsic protein fluorescence in the micro-capillary device for a direct comparison.
(§3) Data for the observed fluorescence (Fobs) as a function of denaturant concentration ([D]) were fit using SigmaPlot 10.0 (Systat Software, Hounslow, UK) to the equation below: […]
(§4) The free energy of protein denaturation in water ΔGH2O was calculated as mGC1/2, using the fitted mG, where we set the denaturant dependent free energy (ΔGobs) to zero in the equation below when [D] is equal to C1/2. ΔGobs=ΔGH2O+mG[D] Values of ΔGH2O were used to calculate the change in free energy of the mutant or ligand bound protein, ΔΔGX-WT, relative to un-liganded wild-type FKBP-12. The change in free energy of unfolding upon ligand binding, ΔΔGbinding, was calculated for each mutant from the values of ΔGH2O for liganded FKBP-12 relative to ΔGH2O for non-liganded FKBP-12.

The nature of series [2]: Example 1 GdHCl denaturation of FKBP-12, capillary intrinsic fluorescence. It is filed as physicochemical. The note with it: 2 μM FKBP-12, GdHCl, 1 mM DTT, 50 mM Tris.HCl pH 7.5, 20° C.
Text: The configuration comprises a laser 5 (QUV266-02, Crystalaser, Reno, Nev.) of wavelength 266 nm, 5 mW, pulsed at 1 kHz; a bandpass filter (newport), at 266 nm 15; a converging lens (SPX010AR.10, Newport) 16; a 100 μm internal diameter capillary (FS-110, Upchurch™) 1; and a photo multiplier tube (R1166PMT, Hamamatsu, Japan) 7; linked to a data acquisition system consisting of a PC expansion card (PXI-5124, National Instruments), for capture and analysis of the data in Labview (National Instruments). […] Samples were measured and averaged for 100 laser pulses. […] A fluorescence relative intensity of 1500 at a concentration of 0 mg ml^−1 of BSA corresponds to the background signal of the setup generated by excitation radiation.
The denaturation experiment was repeated for another protein using 2 μM FKBP-12. […] The stability was measured using the denaturant guanidinium hydrochloride (GdHCl) in 1 mM dithiothreitol (DTT), 50 mM Tris.HCl at pH 7.5 and at 20° C., using a flow rate of 10 μL/min through the capillary. The fluorescence of FKBP with various concentrations of GdHCl (from 0M to 3M) was measured. […] C1/2 represents the denaturant concentration at which half of the protein is in the unfolded state.
For series [3] the following is noted: Literature, cited from earlier work.
Series [4] in a line: Equilibrium denaturation of FKBP-12 proteins by GdnHCl, microplate method. It is filed as physicochemical. On the procedure: as §1, §2, §3, §4
Setting [5] is: GdnHCl, 50 mM Tris.HCl pH 7.5, 1 mM DTT.
[6] abbreviates: GdnHCl, mG from each independent curve fit.
[7] abbreviates: GdnHCl, using average mG values.
[8] abbreviates: relative to wild-type FKBP-12 without rapamycin, from ΔGH2O.

In the case of “FKBP-12 wt: Wild-type FKBP-12 expressed and purified from a GST-FKBP fusion gene in E. coli BL21 cells”, the mG is 5.4 ± 0.7 kcal mol^−1 M^−1 in series [1] (GdnHCl), 6.6 ± 0.3 kcal mol^−1 M^−1 in series [3] (GdnHCl) and 6.6 ± 0.4 kcal mol^−1 M^−1 in series [4] (GdnHCl). For the same substance, the “C1/2 (transition mid-point)” value is reported as 0.74 ± 0.02 M in series [1] (setting [5]), 0.78 ± 0.005 M in series [3] (GdnHCl) and 0.77 ± 0.01 M in series [4] (setting [5]). The ΔGH2O was 4.03 ± 0.5 kcal/mol in series [1] (setting [6]), 5.13 ± 0.2 kcal/mol in series [3] (GdnHCl) and 5.05 ± 0.3 kcal/mol in series [4] (setting [6]). Moreover, the figures for the “ΔG<mG>” value in series [1] (setting [7]) and in series [4] (setting [7]) were 3.84 ± 0.3 kcal/mol and 4.72 ± 0.3 kcal/mol, respectively. Also, the ΔΔGX-WT in series [1] (setting [8]), in series [3] (relative to wild-type FKBP-12 without rapamycin) and in series [4] (setting [8]) was 0 kcal/mol throughout. Moreover, the “mid-point of denaturation (C1/2), absence of rapamycin” value in series [2] amounted to 0.65 M.
